Data as given in US20190352376A1 (NATIONAL RESEARCH COUNCIL OF CANADA, published 2019).
Residue numbers refer to the chain shown, from its start.

Experiments:
[1] = biological target: hemagglutinin of H12N5 A/Duck/Alberta/60/76 (influenza virus H12N5 …, UniProt P03446 17-564); experiment: Western blot; virus, MDCK cells
[2] = biological target: hemagglutinin of H2N2 A/Singapore/1/57 (influenza virus H2N2 A/Singapore/1/57, UniProt Q67333 16-562); experiment: Western blot; virus, eggs
[3] = biological target: hemagglutinin of H13N6 A/Gull/Maryland/704/77 (influenza virus H13N6 …, UniProt P13103 19-566); experiment: Western blot; virus, eggs
[4] = biological target: hemagglutinin of H9N2 A/Turkey/Wisconsin/1/66 (influenza virus H9N2 …, UniProt P03457 19-560); experiment: Western blot; virus, eggs
[5] = biological target: hemagglutinin of H7N3/A/Turkey/Oregon/71 (influenza virus H7N3 A/Turkey/Oregon/71, UniProt P03458 19-560); experiment: Western blot; virus, eggs
[6] = biological target: hemagglutinin of H8N4 A/Turkey/Ontario/6118/68 (influenza virus H8N4 …, UniProt P03456 16-565); experiment: Western blot; virus, eggs
[7] = biological target: hemagglutinin of H4N6 A/Duck/Czechoslovakia/56 (influenza virus H4N6 …, UniProt P19696 17-564); experiment: Western blot; virus, eggs
[8] = biological target: hemagglutinin of B/Brisbane/60/2008 (influenza virus B/Brisbane/60/2008); experiment: dot blot, 4M urea; rHA (Prot. Sc.), dot 11
[9] = biological target: T1, hemagglutinin of H1N1 A/California/06/2008 (influenza virus H1N1 …); experiment: dot blot, 4M urea; rHA (Imm. Techn.), dot 2
[10] = biological target: T1, hemagglutinin of H1N1 …; experiment: dot blot, 4M urea; inactivated virus (egg/NIBSC), dot 12
[11] = biological target: T2, hemagglutinin of H3N2 A/Hong Kong/8/1968 (influenza virus H3N2 A/Hong Kong/8/1968); experiment: dot blot, 4M urea; virus (HEK293/NRC), dot 19
[12] = biological target: hemagglutinin of H3N2 A/Wisconsin/67/2005 (influenza virus H3N2 A/Wisconsin/67/2005); experiment: dot blot, 4M urea; rHA (Prot. Sc.), dot 4
[13] = biological target: hemagglutinin of H3N2 A/Texas/50/2012 (influenza virus H3N2 A/Texas/50/2012); experiment: dot blot, 4M urea; inactivated virus (egg/NIBSC), dot 13
[14] = biological target: T3, hemagglutinin of H3N2 A/Brisbane/10/2007 (influenza virus H3N2 A/Brisbane/10/2007); experiment: dot blot, 4M urea; rHA (BEI Res.), dot 6
T3 construct: rHA (BEI Resources)

[15] = biological target: T2, hemagglutinin of H3N2 A/Hong Kong/8/1968; experiment: dot blot, 4M urea; rHA (Imm. Techn.), dot 5
[16] = biological target: hemagglutinin of B/Massachusetts/2/2012 (influenza virus B/Massachusetts/2/2012); experiment: dot blot, 4M urea; inactivated virus (egg/NIBSC), dot 14
[17] = biological target: T4, hemagglutinin of H1N1 A/Puerto Rico/8/1934 (influenza virus H1N1 A/Puerto …, UniProt P03452 18-528); experiment: dot blot, 4M urea; rHA (Prot. Sc.), dot 1
[18] = biological target: T4, hemagglutinin of H1N1 A/Puerto …; experiment: dot blot, 4M urea; virus (HEK293/NRC), dot 17

B1: F211-10A9 (antibody, V domains shown)
VH: QIQLQQSGPELVKPGAPVKISCKASGYTFTDYYIHWVNQRPGQGLEWIGYIYPGNGHTVYNQKFKVRATLTADNPSSTAYLQLNSLTSEDSGVYFCAYDLFNYWGQGTLVTVSA
VL: DIVMTQSPSSLAMSVGQKVTMSCKSSQSLLNSDTQKNFLAWYQQKPGQSPKILVYFASTKESGVPDRFIGSGSGTDFTLTITSVQAEDLADYFCQQYYSIPLTFGAGTKLELK
[1]
  binding result: binds
[2]
  binding result: binds
[3]
  binding result: binds
[4]
  binding result: binds
[5]
  binding result: binds
[6]
  binding result: binds
[7]
  binding result: binds
[8]
  signal intensity: 25800 arbitrary fluorescent units
[9]
  signal intensity: 2780 arbitrary fluorescent units
[10]
  signal intensity: 227 arbitrary fluorescent units
[11]
  signal intensity: 319 arbitrary fluorescent units
[12]
  signal intensity: 791 arbitrary fluorescent units
[13]
  signal intensity: 412 arbitrary fluorescent units
[14]
  signal intensity: 11500 arbitrary fluorescent units
[15]
  signal intensity: 5670 arbitrary fluorescent units
[16]
  signal intensity: 240 arbitrary fluorescent units
[17]
  signal intensity: 2520 arbitrary fluorescent units
[18]
  signal intensity: 7450 arbitrary fluorescent units

B2: F211-11H12 (antibody, V domains shown)
VH: DVQLQESGPGLVKPSQSLSLTCSVTGYSITSDYYWNWIRQFPGNKLEWMAYIGYDGTKNYNPSLKNRISITRDTSKNQFFLKLNSVTTDDTATYYCTRDRANWDDYFDYWGQGTTLTVSS
VL: DIVMSQSPSSLAVSVGEKVTMSCKSSQSLLNSRNQKNHLAWYQQKPGQSPKLLIYWASTRESGVPDRFTGDGSGTDFTLTISSVKAEDLAVYYCQQYYTYRTFGGGTKLEIK
[5]
  binding result: no binding (tested: 2µg/ml)
[7]
  binding result: no binding (tested: 2µg/ml)
[8]
  signal intensity: 38500 arbitrary fluorescent units
[9]
  signal intensity: 5120 arbitrary fluorescent units
[10]
  signal intensity: 14400 arbitrary fluorescent units
[11]
  signal intensity: 201 arbitrary fluorescent units
[12]
  signal intensity: 176 arbitrary fluorescent units
[13]
  signal intensity: 201 arbitrary fluorescent units
[14]
  signal intensity: 280 arbitrary fluorescent units
[15]
  signal intensity: 464 arbitrary fluorescent units
[16]
  signal intensity: 9930 arbitrary fluorescent units
[17]
  signal intensity: 20300 arbitrary fluorescent units
[18]
  signal intensity: 6540 arbitrary fluorescent units

B3: F211-9D1 (antibody, V domains shown)
VH: B2 VH with T57S
VL: B2 VL with T69S
[8]
  signal intensity: 41100 arbitrary fluorescent units
[9]
  signal intensity: 5780 arbitrary fluorescent units
[10]
  signal intensity: 17400 arbitrary fluorescent units
[11]
  signal intensity: 108 arbitrary fluorescent units
[12]
  signal intensity: 70 arbitrary fluorescent units
[13]
  signal intensity: 238 arbitrary fluorescent units
[14]
  signal intensity: 362 arbitrary fluorescent units
[15]
  signal intensity: 651 arbitrary fluorescent units
[16]
  signal intensity: 10500 arbitrary fluorescent units
[17]
  signal intensity: 21400 arbitrary fluorescent units
[18]
  signal intensity: 7810 arbitrary fluorescent units
